The values below come from article PMC12358912.

One data set addresses NIPBL-MAU2 (human) (UniProt Q6KC79+Q9Y6X3). The data set is described as follows: mass photometry. The note with it: typically 150 nM protein + 150 nM DNA, then diluted (10-fold for NIPBL), phosphate buffer (HEPES for MC604 repeat), 50 mM NaCl for ATP ….
For the next data set, the target named is T1, STAG1 (human) (UniProt Q8WVM7).
T1 sequence: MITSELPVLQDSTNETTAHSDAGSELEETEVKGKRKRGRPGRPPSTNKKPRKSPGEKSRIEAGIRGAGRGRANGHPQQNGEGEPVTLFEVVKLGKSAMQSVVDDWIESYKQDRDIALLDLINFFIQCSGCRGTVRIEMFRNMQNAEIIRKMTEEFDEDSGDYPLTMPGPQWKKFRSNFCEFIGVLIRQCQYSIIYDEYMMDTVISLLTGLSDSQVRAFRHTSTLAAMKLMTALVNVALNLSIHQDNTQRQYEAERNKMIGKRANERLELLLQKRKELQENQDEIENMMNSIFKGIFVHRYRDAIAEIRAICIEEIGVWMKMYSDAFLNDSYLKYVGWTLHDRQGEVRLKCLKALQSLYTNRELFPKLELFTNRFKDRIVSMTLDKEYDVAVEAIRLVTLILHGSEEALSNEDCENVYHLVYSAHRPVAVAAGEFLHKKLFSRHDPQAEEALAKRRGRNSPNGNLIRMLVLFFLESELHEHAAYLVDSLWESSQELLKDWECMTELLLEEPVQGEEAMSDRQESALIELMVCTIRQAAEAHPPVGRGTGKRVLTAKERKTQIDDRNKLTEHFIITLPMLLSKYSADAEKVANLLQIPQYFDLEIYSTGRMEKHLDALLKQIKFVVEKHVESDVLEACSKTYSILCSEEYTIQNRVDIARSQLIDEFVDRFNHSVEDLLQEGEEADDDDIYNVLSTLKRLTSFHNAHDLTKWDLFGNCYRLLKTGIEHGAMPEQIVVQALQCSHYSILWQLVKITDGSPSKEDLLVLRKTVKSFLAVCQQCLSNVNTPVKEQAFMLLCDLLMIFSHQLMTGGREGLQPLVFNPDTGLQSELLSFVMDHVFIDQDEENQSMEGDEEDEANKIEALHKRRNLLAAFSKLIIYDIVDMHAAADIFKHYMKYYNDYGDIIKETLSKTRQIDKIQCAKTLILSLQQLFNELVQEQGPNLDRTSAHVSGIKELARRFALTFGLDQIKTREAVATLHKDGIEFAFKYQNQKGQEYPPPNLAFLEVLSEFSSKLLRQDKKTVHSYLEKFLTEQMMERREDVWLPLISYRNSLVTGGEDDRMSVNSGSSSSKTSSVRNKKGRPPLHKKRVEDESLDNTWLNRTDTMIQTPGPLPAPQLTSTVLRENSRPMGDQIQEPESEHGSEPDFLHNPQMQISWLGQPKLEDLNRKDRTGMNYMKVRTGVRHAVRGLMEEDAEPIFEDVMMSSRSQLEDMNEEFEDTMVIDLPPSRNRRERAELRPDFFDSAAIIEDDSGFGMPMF
As to the kind of experiment: mass photometry. To be noted: typically 150 nM protein + 150 nM DNA, then diluted (10-fold for NIPBL), phosphate buffer (HEPES for MC604 repeat), 50 mM NaCl for ATP ….

In data set [1] the target is cohesin Trimer (SMC1/SMC3/SCC1);STAG1 (human;human) (UniProt Q14683+Q9UQE7+O60216+Q8WVM7). The data set is described as follows: mass photometry. To be noted: typically 150 nM protein + 150 nM DNA, then diluted (10-fold for NIPBL), phosphate buffer (HEPES for MC604 repeat), 50 mM NaCl for ATP ….
Chain of cohesin Trimer (SMC1/SMC3/SCC1);STAG1 (human;human) (Q14683 whole entry, chain 1 of 3): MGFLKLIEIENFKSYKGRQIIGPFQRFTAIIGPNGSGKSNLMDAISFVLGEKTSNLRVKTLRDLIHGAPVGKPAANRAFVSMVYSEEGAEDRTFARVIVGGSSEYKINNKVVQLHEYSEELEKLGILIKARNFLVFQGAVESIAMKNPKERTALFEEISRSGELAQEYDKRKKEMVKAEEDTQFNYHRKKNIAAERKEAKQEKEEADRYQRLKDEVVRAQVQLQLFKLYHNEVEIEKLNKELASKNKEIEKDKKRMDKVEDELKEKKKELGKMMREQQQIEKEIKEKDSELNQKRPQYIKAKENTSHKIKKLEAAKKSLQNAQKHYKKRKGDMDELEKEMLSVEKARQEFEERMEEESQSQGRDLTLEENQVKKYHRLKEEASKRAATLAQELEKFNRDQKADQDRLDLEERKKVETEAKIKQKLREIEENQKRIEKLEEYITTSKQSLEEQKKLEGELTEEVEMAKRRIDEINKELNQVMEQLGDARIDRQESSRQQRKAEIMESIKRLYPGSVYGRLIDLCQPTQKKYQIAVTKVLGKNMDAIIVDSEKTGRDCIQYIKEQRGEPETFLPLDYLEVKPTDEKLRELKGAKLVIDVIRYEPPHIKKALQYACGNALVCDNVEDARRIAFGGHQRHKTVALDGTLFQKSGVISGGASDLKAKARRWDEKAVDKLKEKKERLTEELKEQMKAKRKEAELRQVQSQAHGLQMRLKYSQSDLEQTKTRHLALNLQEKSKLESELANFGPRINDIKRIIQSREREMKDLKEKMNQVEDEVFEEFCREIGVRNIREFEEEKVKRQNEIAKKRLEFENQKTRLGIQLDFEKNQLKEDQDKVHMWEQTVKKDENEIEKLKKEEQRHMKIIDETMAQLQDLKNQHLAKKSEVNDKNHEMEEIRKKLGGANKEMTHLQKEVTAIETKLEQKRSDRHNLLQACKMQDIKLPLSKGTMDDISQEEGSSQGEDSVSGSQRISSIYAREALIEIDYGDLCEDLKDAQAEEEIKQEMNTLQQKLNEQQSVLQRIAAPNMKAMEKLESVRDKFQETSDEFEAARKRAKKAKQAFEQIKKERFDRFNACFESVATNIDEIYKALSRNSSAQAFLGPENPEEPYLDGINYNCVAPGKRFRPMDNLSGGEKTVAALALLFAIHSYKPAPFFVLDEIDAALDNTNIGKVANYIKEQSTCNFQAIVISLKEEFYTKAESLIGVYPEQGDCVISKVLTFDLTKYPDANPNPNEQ
Chain of cohesin Trimer (SMC1/SMC3/SCC1);STAG1 (human;human) (Q9UQE7 whole entry, chain 2 of 3): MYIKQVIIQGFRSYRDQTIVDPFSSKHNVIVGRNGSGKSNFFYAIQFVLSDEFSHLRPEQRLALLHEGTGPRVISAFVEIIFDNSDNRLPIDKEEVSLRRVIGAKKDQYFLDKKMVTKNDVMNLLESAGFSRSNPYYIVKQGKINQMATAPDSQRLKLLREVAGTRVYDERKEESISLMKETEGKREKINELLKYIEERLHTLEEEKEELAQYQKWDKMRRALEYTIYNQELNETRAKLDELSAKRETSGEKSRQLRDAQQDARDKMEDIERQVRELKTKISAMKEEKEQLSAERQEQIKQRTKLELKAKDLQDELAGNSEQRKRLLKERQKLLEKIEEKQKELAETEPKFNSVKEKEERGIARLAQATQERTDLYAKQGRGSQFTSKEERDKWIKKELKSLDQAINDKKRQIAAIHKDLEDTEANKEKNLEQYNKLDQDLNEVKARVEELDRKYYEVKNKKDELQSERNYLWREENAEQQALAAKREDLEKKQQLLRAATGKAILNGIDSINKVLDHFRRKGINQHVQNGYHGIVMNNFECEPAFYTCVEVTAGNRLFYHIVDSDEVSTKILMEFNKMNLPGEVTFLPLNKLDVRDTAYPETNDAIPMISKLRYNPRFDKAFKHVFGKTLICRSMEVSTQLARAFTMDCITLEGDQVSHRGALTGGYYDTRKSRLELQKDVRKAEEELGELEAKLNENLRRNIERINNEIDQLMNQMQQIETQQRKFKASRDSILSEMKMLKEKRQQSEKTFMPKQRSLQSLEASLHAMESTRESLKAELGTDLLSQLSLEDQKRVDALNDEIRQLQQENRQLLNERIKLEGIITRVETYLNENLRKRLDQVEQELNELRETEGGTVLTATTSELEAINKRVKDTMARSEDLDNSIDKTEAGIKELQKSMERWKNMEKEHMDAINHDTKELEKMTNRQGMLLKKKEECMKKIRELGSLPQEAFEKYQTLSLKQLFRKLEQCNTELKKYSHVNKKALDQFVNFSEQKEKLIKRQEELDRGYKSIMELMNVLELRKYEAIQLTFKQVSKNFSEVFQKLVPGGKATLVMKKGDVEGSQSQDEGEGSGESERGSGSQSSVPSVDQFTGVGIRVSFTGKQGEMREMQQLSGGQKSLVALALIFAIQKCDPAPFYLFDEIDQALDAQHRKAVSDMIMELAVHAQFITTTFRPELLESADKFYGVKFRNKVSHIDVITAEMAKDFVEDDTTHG
Chain of cohesin Trimer (SMC1/SMC3/SCC1);STAG1 (human;human) (O60216 whole entry, chain 3 of 3): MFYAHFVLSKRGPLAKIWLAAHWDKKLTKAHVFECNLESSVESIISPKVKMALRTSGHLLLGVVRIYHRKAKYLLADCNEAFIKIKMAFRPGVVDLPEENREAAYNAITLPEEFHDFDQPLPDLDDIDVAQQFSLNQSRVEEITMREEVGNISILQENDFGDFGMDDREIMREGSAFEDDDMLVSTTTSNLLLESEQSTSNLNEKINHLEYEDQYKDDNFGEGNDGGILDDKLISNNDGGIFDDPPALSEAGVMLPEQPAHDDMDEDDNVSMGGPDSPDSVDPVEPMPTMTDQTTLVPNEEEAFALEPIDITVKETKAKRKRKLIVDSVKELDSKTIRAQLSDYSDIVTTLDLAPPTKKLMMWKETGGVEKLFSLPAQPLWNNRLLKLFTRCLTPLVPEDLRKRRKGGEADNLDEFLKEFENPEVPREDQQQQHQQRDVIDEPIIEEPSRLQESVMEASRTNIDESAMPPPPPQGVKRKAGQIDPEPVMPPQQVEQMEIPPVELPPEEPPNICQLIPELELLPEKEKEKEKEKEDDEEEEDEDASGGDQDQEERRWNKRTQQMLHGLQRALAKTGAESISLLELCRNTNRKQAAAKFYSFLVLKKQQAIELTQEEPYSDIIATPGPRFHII
The next data set deals with NIPBL (human) (UniProt Q6KC79). As to the kind of experiment: mass photometry. To be noted: typically 150 nM protein + 150 nM DNA, then diluted (10-fold for NIPBL), phosphate buffer (HEPES for MC604 repeat), 50 mM NaCl for ATP ….
In data set [2] the target is SMC1/SMC3/SCC1 cohesin Trimer (UniProt Q14683). The data set is described as follows: mass photometry; in solution; two components mixed and equilibrated: 150 nM cohesin Trimer sample with 150 nM NIPBL, or with 150 nM or 80 nM STAG1 (total protein concentrations); KD from individual mass distributions; ATP is said not to affect these 1:1 interactions.
Chain of SMC1/SMC3/SCC1 cohesin Trimer (Q14683 whole entry, chain 1 of 3): as the sequence (Q14683 whole entry, chain 1 of 3) above
Chain of SMC1/SMC3/SCC1 cohesin Trimer (chain, as listed by the source, chain 2 of 3): as the sequence (Q9UQE7 whole entry, chain 2 of 3) above
Chain of SMC1/SMC3/SCC1 cohesin Trimer (chain, as listed by the source, chain 3 of 3): as the sequence (O60216 whole entry, chain 3 of 3) above

Turning to “CATATGTGCAGTCCCCCCATAAAAAAACCCGCCGAAGCGGGTTTTTACGTTATTTGCGGATTTTAATTAACTAGTTCTAGAGCTCACGTGCAGCTGTCGACGGTACCTGCAGGCCGGCCAGTACTGGGCCCCAACAGATAAAACGAAAGGCCCAGTCTTTCGACTGAGCCTTTCGTTTTATTGGGCCCCCTTGGTCAAATTGGGTATACCCATTTGGGCCTGGTCTGGCCGGCATGGCGCATTACAGCGGTACGCAATTTAAATGCGCCTAGCGCATTTTCCCGACCTTAATGCGCCTCGCG (double strand) [MC302 supercoiled minicircle]”, the Kd (in general, the constant that tells how readily two partners part at equilibrium) with NIPBL-MAU2 (human) is 12.2 nM; in the data set with STAG1 (human), 1350 nM; in data set [1], 169 nM; in the data set with NIPBL (human), below 10 nM.
NIPBL, Q6KC79 1-2804 returned a dissociation constant Kd in data set [2] of 20 nM.
